Changes are numbered by the printed parent chain. Names may count otherwise.

Test [1] addresses T1, human CD8 on cells (HPBALL cells, TALL1 cells, CD8+ T cells of human whole blood and PBMCs) (human, UniProt P01732 22-234).
T1 construct: also called huCD8
Description: PET MIP of TALL1 tumor xenografted mice.

Test [2] has as its target T2, rhesus monkey CD8 in CD8-rich tissues (in vivo) (rhesus monkey, UniProt P01732 23-235 (human entry)).
T2 construct: the target was seen by PET in lymph nodes, thymus and spleen; also called rhesus CD8
Description: PET imaging in rhesus monkey. The protocol:
Imaging experiments were performed with ¹⁸F-anti-CD8 VHH in a rhesus monkey to determine whether uptake could be detected in tissues that are normally CD8-rich. A rhesus monkey (2.5 kg) was injected with 64 micrograms ¹⁸F-anti-CD8 VHH containing a 1.2 mCi radiation dose.

Test [3] addresses T3, one-armed single chain huCD8α/huCD8β-Fc (human, UniProt P10966 22-170).
T3 construct: the whole entry is named; also called Human CD8αβ; CD8αβ-Fc; not shown: linker between CD8α and CD8β; not described; one polypeptide chain of an Fc (captured with an anti-HuIgG1 Fc kit); second Fc chain without fusion (one-armed format)
Description: SPR, Biacore T200, 37°C, CD8αβ-Fc captured, VHH as analyte. On the procedure: (§1) The binding affinity for each VHH variant to both human (a one-armed single chain huCD8α/huCD8β-Fc) and cynomolgus monkey (a one-armed single chain cynoCD8α/cynoCD8β-Fc) were determined by Surface Plasmon Resonance (SPR). SPR experiments were carried out on the Biacore T200 (GE Healthcare) at 37° C. using HBS-P+ (GE Healthcare) running buffer. 1.5 μg/mL of CD8αβ-Fc was captured using an anti-HuIgG1 Fc capture kit (GE Healthcare) and monomeric VHHs were added as the analyte in solution at a flow rate of 100 μL/min. The VHH was titrated using a dilution series from 100-0 nM. Sensorgrams were fit to a 1:1 Langmuir model to identify kinetic parameters, including KD, kₒₙ and koff.

In test [4] the target is T4, one-armed single chain cynoCD8α/cynoCD8β-Fc (cynomolgus monkey).
T4 construct: the whole entry is named; also called Cyno CD8αβ; CD8αβ-Fc; not shown: linker between CD8α and CD8β; not described; one polypeptide chain of an Fc (captured with an anti-HuIgG1 Fc kit); second Fc chain without fusion (one-armed format)
The test is described as above. On the procedure: as §1

Test [5] has as its target T5, huCD8a-Fc (C-terminal hFc-tagged human CD8α receptor) (human, UniProt P01732 22-182).
T5 construct: the whole entry is named; also called CD8α-Fc; CD8α-hFc; not shown: human Fc tag at the C-terminus
Description: SPR. On the technique in general: In SPR one partner is held on a chip, and binding of the other changes the refractive index at the surface.

Test [6] deals with T3, one-armed single chain huCD8α/huCD8β-Fc. Description: affinity measurement, method not named in the sentence (SPR per paragraph 284).

T4 sequence (P01732 other isoform, or with tags, fused parts or gaps): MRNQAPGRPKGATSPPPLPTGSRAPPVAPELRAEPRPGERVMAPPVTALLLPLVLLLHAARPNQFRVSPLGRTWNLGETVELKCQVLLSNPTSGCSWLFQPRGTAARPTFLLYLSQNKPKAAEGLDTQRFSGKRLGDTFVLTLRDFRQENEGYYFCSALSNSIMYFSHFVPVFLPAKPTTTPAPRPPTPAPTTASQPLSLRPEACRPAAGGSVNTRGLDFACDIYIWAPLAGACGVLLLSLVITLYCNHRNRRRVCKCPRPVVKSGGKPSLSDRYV
T3 sequence (P10966 other isoform, or with tags, fused parts or gaps): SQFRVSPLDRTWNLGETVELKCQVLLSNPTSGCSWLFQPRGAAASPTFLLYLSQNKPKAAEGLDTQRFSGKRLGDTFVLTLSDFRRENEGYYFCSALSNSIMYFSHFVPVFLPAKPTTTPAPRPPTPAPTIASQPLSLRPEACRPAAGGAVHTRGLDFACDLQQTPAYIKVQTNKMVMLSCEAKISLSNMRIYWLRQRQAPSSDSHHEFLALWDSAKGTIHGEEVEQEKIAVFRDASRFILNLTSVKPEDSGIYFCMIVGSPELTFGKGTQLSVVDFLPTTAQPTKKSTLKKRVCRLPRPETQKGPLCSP
T5 sequence (P01732 22-182 limits assumed): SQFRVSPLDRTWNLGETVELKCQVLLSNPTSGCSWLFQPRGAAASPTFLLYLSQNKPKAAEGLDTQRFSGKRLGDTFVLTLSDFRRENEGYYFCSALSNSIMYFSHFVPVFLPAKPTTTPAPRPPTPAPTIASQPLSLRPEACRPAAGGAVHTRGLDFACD
T2 sequence (P01732 other isoform, or with tags, fused parts or gaps limits assumed): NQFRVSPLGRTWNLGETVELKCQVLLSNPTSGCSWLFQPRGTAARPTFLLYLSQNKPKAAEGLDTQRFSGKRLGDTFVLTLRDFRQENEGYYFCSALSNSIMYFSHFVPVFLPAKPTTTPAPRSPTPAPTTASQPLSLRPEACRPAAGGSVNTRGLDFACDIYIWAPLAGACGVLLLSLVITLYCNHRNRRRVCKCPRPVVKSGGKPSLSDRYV
T1 sequence (P01732 22-234 limits assumed): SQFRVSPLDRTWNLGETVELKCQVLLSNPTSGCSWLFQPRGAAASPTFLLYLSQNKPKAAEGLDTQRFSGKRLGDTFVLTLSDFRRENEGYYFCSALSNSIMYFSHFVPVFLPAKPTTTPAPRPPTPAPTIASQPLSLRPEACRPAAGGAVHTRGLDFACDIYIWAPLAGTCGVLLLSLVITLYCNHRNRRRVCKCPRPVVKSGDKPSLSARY

B1: 18F-control VHH (18F-AlF-RESCA-modified 2C8v145) (VHH)
VHH: EVQLVESGGGLVQPGGSLRLSCAASGFTFDDYAIGWFRQAPGKGREGVACIRIFDRHTYYADSVKGRFTISSDNSKNTVYLQMNSLRAEDTATYYCAAGFFSGCTRPEGDMDYFGQGTLVQVQS
modifications: RESCA chelator (Formula (I)) carrying [18F]-aluminum fluoride; site not stated
Regarding B1, the binding result in test [1] and in test [2] was “no binding” in each case.

B2: 2C8v142 VHH (VHH)
VHH: B1 VHH with A33V, F100S, S102F
notes: also called hu2C8v142
Usually Kd stands for the concentration at which binding is half-saturated. For orientation: koff means the first-order rate constant of dissociation. The kon is the second-order rate constant of association. With B2, in test [3], the Kd was 0.132 nM, the koff was 0.00176 s⁻¹ and the kon is 1.34e+07 M⁻¹ s⁻¹. In test [4], the Kd was 0.344 nM, the koff was found to be 0.0037 s⁻¹ and the kon stood at 1.09e+07 M⁻¹ s⁻¹.

B3: 2C8v144 VHH (VHH)
VHH: B1 VHH with F100S, S102W
notes: also called hu2C8v144
In test [3], B3 returned a Kd of 0.0497 nM, a koff of 0.000845 s⁻¹ and a kon of 1.7e+07 M⁻¹ s⁻¹. Besides, in test [4], the affinity, expressed as Kd, was 0.137 nM; the koff amounted to 0.0019 s⁻¹; the kon stood at 1.39e+07 M⁻¹ s⁻¹.

B4: 2C8 VHH (llama anti-CD8 VHH wt2C8) (VHH)
VHH: EVQLVESGGGLVQAGGSLRLSCAASGFTFDDYAIGWFRQAPGKGREGVLCIRIFDRHTYSADSVKGRFTISSDNAQNTVYLHMNSLKPEDTAVYYCAAGSFWACTRPEGAMDYWGKGTQVTVSS
notes: Monomeric VHH; VHHs were made both with a C-terminal His tag and tagless; also called 2C8.1-H; wild-type 2C8
In the case of B4, in test [5], the binding result was “binds”.

B5: 2C8 with the A99G and A100fD mutations (VHH, name in Kabat numbering)
VHH: B4 VHH with A103G, A110D
On to B5, for which, in test [6], the “fold improvement of affinity against the parental clone 2C8” value was approximately 10 fold.

Values taken from patent publication US20230192853A1 (Genentech, published 2023).
